Numbered stars: 1 amine (or outer) side, 2 acyl side, 3 side chain; on linkers, the order of the positions; unused ones are H or OH. Square brackets hold non-standard residues; d marks the D form. Side chains are listed from the residue outwards. * marks the point of attachment. C18 diacid = O=C(O)CCCCCCCCCCCCCCCCC(=O)*; γGlu = O=C(O)[C@H](CCC(=O)[*:2])N[*:1]; Aib = CC(C)(N)C(=O)O
T1: human GLP-2 receptor (hGLP2-R) (human, UniProt O95838)
T1 sequence: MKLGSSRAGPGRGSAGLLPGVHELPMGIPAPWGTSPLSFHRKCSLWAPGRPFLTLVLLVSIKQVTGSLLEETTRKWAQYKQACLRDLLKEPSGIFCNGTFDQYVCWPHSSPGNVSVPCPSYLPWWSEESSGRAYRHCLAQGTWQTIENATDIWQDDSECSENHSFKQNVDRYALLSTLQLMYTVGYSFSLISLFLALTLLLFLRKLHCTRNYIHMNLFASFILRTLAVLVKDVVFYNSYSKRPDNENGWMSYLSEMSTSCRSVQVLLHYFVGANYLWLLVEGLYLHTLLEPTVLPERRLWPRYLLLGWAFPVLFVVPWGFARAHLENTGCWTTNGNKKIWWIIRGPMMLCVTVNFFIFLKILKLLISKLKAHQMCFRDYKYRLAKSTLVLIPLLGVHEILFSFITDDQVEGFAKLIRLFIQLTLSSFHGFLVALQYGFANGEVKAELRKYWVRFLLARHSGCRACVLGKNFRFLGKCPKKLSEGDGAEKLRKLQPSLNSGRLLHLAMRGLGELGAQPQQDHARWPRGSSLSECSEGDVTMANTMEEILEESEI


Experiments:
[1] = molecular target: T1, human GLP-2 receptor (hGLP2-R); test: cell-based or functional assay
[2] = molecular target: human glucagon-like peptide 1 receptor (GLP-1R) (human, UniProt P43220); test: cell-based or functional assay

Binder | EC50 GLP-2 (nM), cAMP AlphaScreen [1] [nM] | EC50 GLP-1 (nM), cAMP AlphaScreen [2] [nM]
H-H[Aib]EGTFTSELATILDK([γGlu-C18 diacid])LAARDFIAWLIEHKITD-OH (SMILES CC[C@H](C)[C@H](NC(=O)[C@H](Cc1ccccc1)NC(=O)[C@H](CC(=O)O)NC(=O)[C@H](CCCNC(=N)N)NC(=O)[C@H](C)NC(=O)[C@H](C)NC(=O)[C@H](CC(C)C)NC(=O)[C@H](CCCCNC(=O)CC[C@H](NC(=O)CCCCCCCCCCCCCCCCC(=O)O)C(=O)O)NC(=O)[C@H](CC(=O)O)NC(=O)[C@H](CC(C)C)NC(=O)[C@@H](NC(=O)[C@@H](NC(=O)[C@H](C)NC(=O)[C@H](CC(C)C)NC(=O)[C@H](CCC(=O)O)NC(=O)[C@H](CO)NC(=O)[C@@H](NC(=O)[C@H](Cc1ccccc1)NC(=O)[C@@H](NC(=O)CNC(=O)[C@H](CCC(=O)O)NC(=O)C(C)(C)NC(=O)[C@@H](N)Cc1c[nH]cn1)[C@@H](C)O)[C@@H](C)O)[C@@H](C)O)[C@@H](C)CC)C(=O)N[C@@H](C)C(=O)N[C@@H](Cc1c[nH]c2ccccc12)C(=O)N[C@@H](CC(C)C)C(=O)N[C@H](C(=O)N[C@@H](CCC(=O)O)C(=O)N[C@@H](Cc1c[nH]cn1)C(=O)N[C@@H](CCCCN)C(=O)N[C@H](C(=O)N[C@H](C(=O)N[C@@H](CC(=O)O)C(=O)O)[C@@H](C)O)[C@@H](C)CC)[C@@H](C)CC) [Compound 12] | 0.11 | 0.14
H-H[Aib]EGSFTSELATILDK([γGlu-C18 diacid])QAARDFIAWLIQHKITD-OH (SMILES CC[C@H](C)[C@H](NC(=O)[C@H](Cc1ccccc1)NC(=O)[C@H](CC(=O)O)NC(=O)[C@H](CCCNC(=N)N)NC(=O)[C@H](C)NC(=O)[C@H](C)NC(=O)[C@H](CCC(N)=O)NC(=O)[C@H](CCCCNC(=O)CC[C@H](NC(=O)CCCCCCCCCCCCCCCCC(=O)O)C(=O)O)NC(=O)[C@H](CC(=O)O)NC(=O)[C@H](CC(C)C)NC(=O)[C@@H](NC(=O)[C@@H](NC(=O)[C@H](C)NC(=O)[C@H](CC(C)C)NC(=O)[C@H](CCC(=O)O)NC(=O)[C@H](CO)NC(=O)[C@@H](NC(=O)[C@H](Cc1ccccc1)NC(=O)[C@H](CO)NC(=O)CNC(=O)[C@H](CCC(=O)O)NC(=O)C(C)(C)NC(=O)[C@@H](N)Cc1c[nH]cn1)[C@@H](C)O)[C@@H](C)O)[C@@H](C)CC)C(=O)N[C@@H](C)C(=O)N[C@@H](Cc1c[nH]c2ccccc12)C(=O)N[C@@H](CC(C)C)C(=O)N[C@H](C(=O)N[C@@H](CCC(N)=O)C(=O)N[C@@H](Cc1c[nH]cn1)C(=O)N[C@@H](CCCCN)C(=O)N[C@H](C(=O)N[C@H](C(=O)N[C@@H](CC(=O)O)C(=O)O)[C@@H](C)O)[C@@H](C)CC)[C@@H](C)CC) [Compound 18] | 0.21 | 0.19
H-H[Aib]EGTFSSELATILDK([γGlu-C18 diacid])QAARDFIAWLIQHKITD-OH (SMILES CC[C@H](C)[C@H](NC(=O)[C@H](Cc1ccccc1)NC(=O)[C@H](CC(=O)O)NC(=O)[C@H](CCCNC(=N)N)NC(=O)[C@H](C)NC(=O)[C@H](C)NC(=O)[C@H](CCC(N)=O)NC(=O)[C@H](CCCCNC(=O)CC[C@H](NC(=O)CCCCCCCCCCCCCCCCC(=O)O)C(=O)O)NC(=O)[C@H](CC(=O)O)NC(=O)[C@H](CC(C)C)NC(=O)[C@@H](NC(=O)[C@@H](NC(=O)[C@H](C)NC(=O)[C@H](CC(C)C)NC(=O)[C@H](CCC(=O)O)NC(=O)[C@H](CO)NC(=O)[C@H](CO)NC(=O)[C@H](Cc1ccccc1)NC(=O)[C@@H](NC(=O)CNC(=O)[C@H](CCC(=O)O)NC(=O)C(C)(C)NC(=O)[C@@H](N)Cc1c[nH]cn1)[C@@H](C)O)[C@@H](C)O)[C@@H](C)CC)C(=O)N[C@@H](C)C(=O)N[C@@H](Cc1c[nH]c2ccccc12)C(=O)N[C@@H](CC(C)C)C(=O)N[C@H](C(=O)N[C@@H](CCC(N)=O)C(=O)N[C@@H](Cc1c[nH]cn1)C(=O)N[C@@H](CCCCN)C(=O)N[C@H](C(=O)N[C@H](C(=O)N[C@@H](CC(=O)O)C(=O)O)[C@@H](C)O)[C@@H](C)CC)[C@@H](C)CC) [Compound 17] | 0.33 | 0.9
H-H[Aib]EGTFSSELATILDK([γGlu-C18 diacid])LAARDFIAWLIAHKITD-OH (SMILES CC[C@H](C)[C@H](NC(=O)[C@H](CC(C)C)NC(=O)[C@H](Cc1c[nH]c2ccccc12)NC(=O)[C@H](C)NC(=O)[C@@H](NC(=O)[C@H](Cc1ccccc1)NC(=O)[C@H](CC(=O)O)NC(=O)[C@H](CCCNC(=N)N)NC(=O)[C@H](C)NC(=O)[C@H](C)NC(=O)[C@H](CC(C)C)NC(=O)[C@H](CCCCNC(=O)CC[C@H](NC(=O)CCCCCCCCCCCCCCCCC(=O)O)C(=O)O)NC(=O)[C@H](CC(=O)O)NC(=O)[C@H](CC(C)C)NC(=O)[C@@H](NC(=O)[C@@H](NC(=O)[C@H](C)NC(=O)[C@H](CC(C)C)NC(=O)[C@H](CCC(=O)O)NC(=O)[C@H](CO)NC(=O)[C@H](CO)NC(=O)[C@H](Cc1ccccc1)NC(=O)[C@@H](NC(=O)CNC(=O)[C@H](CCC(=O)O)NC(=O)C(C)(C)NC(=O)[C@@H](N)Cc1c[nH]cn1)[C@@H](C)O)[C@@H](C)O)[C@@H](C)CC)[C@@H](C)CC)C(=O)N[C@@H](C)C(=O)N[C@@H](Cc1c[nH]cn1)C(=O)N[C@@H](CCCCN)C(=O)N[C@H](C(=O)N[C@H](C(=O)N[C@@H](CC(=O)O)C(=O)O)[C@@H](C)O)[C@@H](C)CC) [Compound 13] | 0.099 | 2.2
H-H[Aib]EGSFTSELATILDK([γGlu-C18 diacid])LAARDFIAWLIAHKITD-OH (SMILES CC[C@H](C)[C@H](NC(=O)[C@H](CC(C)C)NC(=O)[C@H](Cc1c[nH]c2ccccc12)NC(=O)[C@H](C)NC(=O)[C@@H](NC(=O)[C@H](Cc1ccccc1)NC(=O)[C@H](CC(=O)O)NC(=O)[C@H](CCCNC(=N)N)NC(=O)[C@H](C)NC(=O)[C@H](C)NC(=O)[C@H](CC(C)C)NC(=O)[C@H](CCCCNC(=O)CC[C@H](NC(=O)CCCCCCCCCCCCCCCCC(=O)O)C(=O)O)NC(=O)[C@H](CC(=O)O)NC(=O)[C@H](CC(C)C)NC(=O)[C@@H](NC(=O)[C@@H](NC(=O)[C@H](C)NC(=O)[C@H](CC(C)C)NC(=O)[C@H](CCC(=O)O)NC(=O)[C@H](CO)NC(=O)[C@@H](NC(=O)[C@H](Cc1ccccc1)NC(=O)[C@H](CO)NC(=O)CNC(=O)[C@H](CCC(=O)O)NC(=O)C(C)(C)NC(=O)[C@@H](N)Cc1c[nH]cn1)[C@@H](C)O)[C@@H](C)O)[C@@H](C)CC)[C@@H](C)CC)C(=O)N[C@@H](C)C(=O)N[C@@H](Cc1c[nH]cn1)C(=O)N[C@@H](CCCCN)C(=O)N[C@H](C(=O)N[C@H](C(=O)N[C@@H](CC(=O)O)C(=O)O)[C@@H](C)O)[C@@H](C)CC) [Compound 14] | 0.086 | 0.57
H-H[Aib]EGTFTSELATILDK([γGlu-C18 diacid])EAARLFIAWLIEHKITD-OH (SMILES CC[C@H](C)[C@H](NC(=O)[C@H](Cc1ccccc1)NC(=O)[C@H](CC(C)C)NC(=O)[C@H](CCCNC(=N)N)NC(=O)[C@H](C)NC(=O)[C@H](C)NC(=O)[C@H](CCC(=O)O)NC(=O)[C@H](CCCCNC(=O)CC[C@H](NC(=O)CCCCCCCCCCCCCCCCC(=O)O)C(=O)O)NC(=O)[C@H](CC(=O)O)NC(=O)[C@H](CC(C)C)NC(=O)[C@@H](NC(=O)[C@@H](NC(=O)[C@H](C)NC(=O)[C@H](CC(C)C)NC(=O)[C@H](CCC(=O)O)NC(=O)[C@H](CO)NC(=O)[C@@H](NC(=O)[C@H](Cc1ccccc1)NC(=O)[C@@H](NC(=O)CNC(=O)[C@H](CCC(=O)O)NC(=O)C(C)(C)NC(=O)[C@@H](N)Cc1c[nH]cn1)[C@@H](C)O)[C@@H](C)O)[C@@H](C)O)[C@@H](C)CC)C(=O)N[C@@H](C)C(=O)N[C@@H](Cc1c[nH]c2ccccc12)C(=O)N[C@@H](CC(C)C)C(=O)N[C@H](C(=O)N[C@@H](CCC(=O)O)C(=O)N[C@@H](Cc1c[nH]cn1)C(=O)N[C@@H](CCCCN)C(=O)N[C@H](C(=O)N[C@H](C(=O)N[C@@H](CC(=O)O)C(=O)O)[C@@H](C)O)[C@@H](C)CC)[C@@H](C)CC) [Compound 16] | 0.68 | 0.073
H-H[Aib]EGTFTSELATILDK([γGlu-C18 diacid])LAARDFIAWLIAHKITD-OH (SMILES CC[C@H](C)[C@H](NC(=O)[C@H](CC(C)C)NC(=O)[C@H](Cc1c[nH]c2ccccc12)NC(=O)[C@H](C)NC(=O)[C@@H](NC(=O)[C@H](Cc1ccccc1)NC(=O)[C@H](CC(=O)O)NC(=O)[C@H](CCCNC(=N)N)NC(=O)[C@H](C)NC(=O)[C@H](C)NC(=O)[C@H](CC(C)C)NC(=O)[C@H](CCCCNC(=O)CC[C@H](NC(=O)CCCCCCCCCCCCCCCCC(=O)O)C(=O)O)NC(=O)[C@H](CC(=O)O)NC(=O)[C@H](CC(C)C)NC(=O)[C@@H](NC(=O)[C@@H](NC(=O)[C@H](C)NC(=O)[C@H](CC(C)C)NC(=O)[C@H](CCC(=O)O)NC(=O)[C@H](CO)NC(=O)[C@@H](NC(=O)[C@H](Cc1ccccc1)NC(=O)[C@@H](NC(=O)CNC(=O)[C@H](CCC(=O)O)NC(=O)C(C)(C)NC(=O)[C@@H](N)Cc1c[nH]cn1)[C@@H](C)O)[C@@H](C)O)[C@@H](C)O)[C@@H](C)CC)[C@@H](C)CC)C(=O)N[C@@H](C)C(=O)N[C@@H](Cc1c[nH]cn1)C(=O)N[C@@H](CCCCN)C(=O)N[C@H](C(=O)N[C@H](C(=O)N[C@@H](CC(=O)O)C(=O)O)[C@@H](C)O)[C@@H](C)CC) [Compound 15] | 0.16 | 0.25

Source: US20250073311A1, “DOSAGE REGIME” (ZEALAND PHARMA A/S, priority 2021, published 2025)
